B1: NECAB1 (parent)
chain: NLDTEELCEYFSQHLGEYENVLAA

Variants of: B1
Experiment: protein stability index of a GFP-peptide fusion (GPS, HEK-293T) (PSI 1-6); higher = more stable
Conditions: c terminus: a fixed tail appended
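Also: lentivirally expressed fusions sorted by FACS into six bins by GFP to DsRed ratio, PSI derived from sequencing read proportions per bin multiplied by bin number.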

Protein stability index: each site, then its substitutions
V21: Q 3.52; R 2.97; S 3.88; T 3.43; W 1.68; Y 1.98
L22: A 4.35; C 4.64; D 4.98; E 4.42; F 1.86; G 4.3; H 4.32; I 2.53; K 4.61; M 3.71; N 4.36; P 4.25; Q 4.36; R 4.39; S 4.64; T 4.36; V 3.26; W 2.55; Y 3.52
A23: C 2.46; D 4.52; E 4.5; F 2.28; G 2.93; H 2.83; I 2.02; K 2.17; L 1.75; M 2.18; N 3.98; P 3.65; Q 3.68; R 2.51; S 2.23; T 3.06; V 2.21; W 1.91; Y 2.2
A24: C 2.25; D 3.98; E 3.53; F 2.02; G 2.22; H 3.35; I 2.26; K 2.69; L 2.82; M 1.92; N 2.02; P 3.43; Q 3.12; R 1.82; S 3.21; T 2.99; V 2.8; W 2.27; Y 2.59
